Starred links: 1 amine or outer side, 2 acyl side, 3 side chain; linkers in the order of their positions; H or OH if unused. Non-standard residues stand in square brackets, D forms with d. No end group written: not given here. Phe(4-(5-CO2H-2-pyrimidyl)) = N[C@@H](Cc1ccc(-c2ncc(C(=O)O)cn2)cc1)C(=O)O; Phe(4-(4-Ac-piperazinyl)) = CC(=O)N1CCN(c2ccc(C[C@H](N)C(=O)O)cc2)CC1; dPro(4R-(4-pyridylmethyl)) = O=C(O)[C@H]1C[C@@H](Cc2ccncc2)CN1; Ala(piperidin-4-yl) = O=C([C@H](CC1CCN([*:3])CC1)N[*:1])[*:2]; Trp(βS-Me,4-F) = C[C@@H](c1c[nH]c2cccc(F)c12)[C@H](N)C(=O)O; Bip(4'-COOH) = N[C@@H](Cc1ccc(-c2ccc(C(=O)O)cc2)cc1)C(=O)O; Ala(1-bicyclo(1.1.1)pentyl) = N[C@@H](CC12CC(C1)C2)C(=O)O; dPro(4R-Bzl(4-F)) = O=C(O)[C@H]1C[C@@H](Cc2ccc(F)cc2)CN1; Ala(morpholin-4-yl) = N[C@@H](CN1CCOCC1)C(=O)O; Ala(pyrimidin-5-yl) = N[C@@H](Cc1cncnc1)C(=O)O; Phe(4-COOH) = N[C@@H](Cc1ccc(C(=O)O)cc1)C(=O)O; Pro(cis-4-F) = O=C(O)[C@@H]1C[C@H](F)CN1; Ala(4-THP) = N[C@@H](CC1CCOCC1)C(=O)O; cisHyp = O=C(O)[C@@H]1C[C@H](O)CN1; d(αMeD) = C[C@@](N)(CC(=O)O)C(=O)O; 4Pal = N[C@@H](Cc1ccncc1)C(=O)O; aThr = C[C@H](O)[C@H](N)C(=O)O; αMeD = C[C@](N)(CC(=O)O)C(=O)O; d(αMeS) = C[C@@](N)(CO)C(=O)O; Dab = NCC[C@H](N)C(=O)O; Aib = CC(C)(N)C(=O)O

Here are results for 21 molecules from patent US20260242419A1, “A CYCLIC PEPTIDE FOR TRAPPING INTERLEUKIN-1 BETA” (Merck Sharp & Dohme LLC, priority 2023, published 2026).

The experiment concerns the target Recombinant human IL-1β (BioLegend 579404) (human, UniProt P01584 117-269). Nature of the experiment: cell-based or functional assay.

B1: SEQ ID NO: 195 (peptide)
peptide: [Bip(4'-COOH)][4Pal][Phe(4-COOH)]G[cisHyp][Trp(βS-Me,4-F)][Aib]SW[d(αMeS)][Ala(pyrimidin-5-yl)]Q[Dab]G[dPro(4R-(4-pyridylmethyl))]
modifications: lactam (positions not given here); also: macrolactam ring, closure sites not given here
In the case of B1, the “MRC5 IC50” value came to 0.013 nM.

B2: SEQ ID NO: 190 (peptide)
peptide: [Bip(4'-COOH)][Ala(1-bicyclo(1.1.1)pentyl)][Phe(4-COOH)]G[cisHyp][Trp(βS-Me,4-F)][Aib]SW[d(αMeS)][Ala(pyrimidin-5-yl)]Q[Dab]G[dPro(4R-(4-pyridylmethyl))]
modifications: lactam (positions not given here); also: macrolactam ring, closure sites not given here
As for B2, the “MRC5 IC50” value turned out to be 0.019 nM.

B3: SEQ ID NO: 182 (peptide)
peptide: [Bip(4'-COOH)][Ala(1-bicyclo(1.1.1)pentyl)][Phe(4-COOH)]G[cisHyp][Trp(βS-Me,4-F)][Aib][aThr]W[d(αMeD)][Ala(pyrimidin-5-yl)]Q[Dab]G[dPro(4R-(4-pyridylmethyl))]
modifications: lactam (positions not given here); also: macrolactam ring, closure sites not given here
With B3, the “MRC5 IC50” value turned out to be 0.049 nM.

B4: SEQ ID NO: 180 (peptide)
peptide: [Bip(4'-COOH)][Ala(1-bicyclo(1.1.1)pentyl)][Phe(4-COOH)]G[Pro(cis-4-F)][Trp(βS-Me,4-F)][Aib]SW[Aib][Ala(piperidin-4-yl)]QSG[dPro(4R-(4-pyridylmethyl))]
modifications: lactam (positions not given here); also: macrolactam ring, closure sites not given here
Consider B4, for which the “MRC5 IC50” value came to 0.027 nM.

B5: SEQ ID NO: 193 (peptide)
peptide: [Bip(4'-COOH)][Ala(1-bicyclo(1.1.1)pentyl)][Phe(4-COOH)]G[Pro(cis-4-F)][Trp(βS-Me,4-F)][Aib]SW[αMeD][Ala(4-THP)]Q[Dab]G[dPro(4R-(4-pyridylmethyl))]
modifications: lactam (positions not given here); also: macrolactam ring, closure sites not given here
In the case of B5, the “MRC5 IC50” value was determined as 0.011 nM.

B6: SEQ ID NO: 199 (peptide)
peptide: cyclo([Bip(4'-COOH)][4Pal][Phe(4-COOH)]G[cisHyp][Trp(βS-Me,4-F)][Aib]SW[αMeD][Ala(4-THP)]QSG[dPro(4R-(4-pyridylmethyl))])
modifications: ring closure inferred; not fully specified (bridges); printed as Bip4CO2H-4Pal-Phe4COOH-G-Proc4OH-SbMeW4F-Aib-S-W-aMeD-AlaTHP4-Q-S-G-dProc4CH24Pal, cyclic (macrolactam)
For the molecule B6, the “MRC5 IC50” value amounted to 0.032 nM.

B7: SEQ ID NO: 197 (peptide)
peptide: [Phe(4-(5-CO2H-2-pyrimidyl))][4Pal][Phe(4-COOH)]G[cisHyp][Trp(βS-Me,4-F)][Aib]SW[Aib][Ala(pyrimidin-5-yl)]Q[Dab]G[dPro(4R-(4-pyridylmethyl))]
modifications: lactam (positions not given here); also: macrolactam ring, closure sites not given here
For B7, the “MRC5 IC50” value stood at 0.036 nM.

B8: SEQ ID NO: 189 (peptide)
peptide: [Bip(4'-COOH)][4Pal][Phe(4-COOH)]G[Pro(cis-4-F)][Trp(βS-Me,4-F)][Aib]SW[αMeD][Ala(4-THP)]QSG[dPro(4R-(4-pyridylmethyl))]
modifications: lactam (positions not given here); also: macrolactam ring, closure sites not given here
Consider B8, for which the “MRC5 IC50” value was found to be 0.016 nM.

B9: SEQ ID NO: 183 (peptide)
peptide: [Phe(4-(4-Ac-piperazinyl))][4Pal][Phe(4-COOH)]G[Pro(cis-4-F)][Trp(βS-Me,4-F)][Aib]SW[Aib][Ala(pyrimidin-5-yl)]Q[Dab]G[dPro(4R-Bzl(4-F))]
modifications: lactam (positions not given here); also: macrolactam ring, closure sites not given here
Turning to B9, the “MRC5 IC50” value was determined as 0.025 nM.

B10: SEQ ID NO: 179 (peptide)
peptide: [Bip(4'-COOH)][Ala(1-bicyclo(1.1.1)pentyl)][Phe(4-COOH)]G[Pro(cis-4-F)][Trp(βS-Me,4-F)][Aib]SW[Aib][Ala(morpholin-4-yl)]QSG[dPro(4R-(4-pyridylmethyl))]
modifications: lactam (positions not given here); also: macrolactam ring, closure sites not given here
For B10, the “MRC5 IC50” value is 0.029 nM.

B11: SEQ ID NO: 191 (peptide)
peptide: [Bip(4'-COOH)][Ala(1-bicyclo(1.1.1)pentyl)][Phe(4-COOH)]G[cisHyp][Trp(βS-Me,4-F)][Aib]SW[αMeD][Ala(4-THP)]Q[Dab]G[dPro(4R-(4-pyridylmethyl))]
modifications: lactam (positions not given here); also: macrolactam ring, closure sites not given here
With B11, the “MRC5 IC50” value is 0.021 nM.

B12: SEQ ID NO: 194 (peptide)
peptide: [Bip(4'-COOH)][4Pal][Phe(4-COOH)]G[cisHyp][Trp(βS-Me,4-F)][Aib]SW[Aib][Ala(pyrimidin-5-yl)]Q[Dab]G[dPro(4R-(4-pyridylmethyl))]
modifications: lactam (positions not given here); also: macrolactam ring, closure sites not given here
Turning to B12, the “MRC5 IC50” value stood at 0.014 nM.

B13: SEQ ID NO: 188 (peptide)
peptide: [Phe(4-(5-CO2H-2-pyrimidyl))][Ala(1-bicyclo(1.1.1)pentyl)][Phe(4-COOH)]G[Pro(cis-4-F)][Trp(βS-Me,4-F)][Aib]SW[αMeD][Ala(pyrimidin-5-yl)]Q[Dab]G[dPro(4R-(4-pyridylmethyl))]
modifications: lactam (positions not given here); also: macrolactam ring, closure sites not given here
Regarding B13, the “MRC5 IC50” value came to 0.02 nM.

B14: SEQ ID NO: 184 (peptide)
peptide: [Phe(4-(4-Ac-piperazinyl))][4Pal][Phe(4-COOH)]G[Pro(cis-4-F)][Trp(βS-Me,4-F)][Aib]SW[αMeD][Ala(pyrimidin-5-yl)]Q[Dab]G[dPro(4R-Bzl(4-F))]
modifications: lactam (positions not given here); also: macrolactam ring, closure sites not given here
Take B14: the “MRC5 IC50” value amounted to 0.014 nM.

B15: SEQ ID NO: 181 (peptide)
peptide: [Bip(4'-COOH)][Ala(1-bicyclo(1.1.1)pentyl)][Phe(4-COOH)]G[Pro(cis-4-F)][Trp(βS-Me,4-F)][Aib]SW[d(αMeS)][Ala(piperidin-4-yl)]QSG[dPro(4R-(4-pyridylmethyl))]
modifications: lactam (positions not given here); also: macrolactam ring, closure sites not given here
As to B15, the “MRC5 IC50” value is 0.021 nM.

B16: SEQ ID NO: 187 (peptide)
peptide: [Phe(4-(5-CO2H-2-pyrimidyl))][4Pal][Phe(4-COOH)]G[Pro(cis-4-F)][Trp(βS-Me,4-F)][Aib]SW[αMeD][Ala(pyrimidin-5-yl)]Q[Dab]G[dPro(4R-(4-pyridylmethyl))]
modifications: lactam (positions not given here); also: macrolactam ring, closure sites not given here
With B16, the “MRC5 IC50” value worked out at 0.015 nM.

B17: SEQ ID NO: 185 (peptide)
peptide: [Phe(4-(5-CO2H-2-pyrimidyl))][Ala(1-bicyclo(1.1.1)pentyl)][Phe(4-COOH)]G[cisHyp][Trp(βS-Me,4-F)][Aib]SW[Aib][Ala(pyrimidin-5-yl)]Q[Dab]G[dPro(4R-(4-pyridylmethyl))]
modifications: lactam (positions not given here); also: macrolactam ring, closure sites not given here
In the case of B17, the “MRC5 IC50” value came out at 0.043 nM.

B18: SEQ ID NO: 198 (peptide)
peptide: [Phe(4-(5-CO2H-2-pyrimidyl))][Ala(1-bicyclo(1.1.1)pentyl)][Phe(4-COOH)]G[Pro(cis-4-F)][SbMcW4F][Aib]SW[Aib][Ala(pyrimidin-5-yl)]Q[Dab]G[dPro(4R-(4-pyridylmethyl))]
modifications: lactam (positions not given here); also: macrolactam ring, closure sites not given here
B18: the “MRC5 IC50” value was found to be 0.024 nM.

B19: SEQ ID NO: 196 (peptide)
peptide: [Phe(4-(4-Ac-piperazinyl))][4Pal][Phe(4-COOH)]G[cisHyp][Trp(βS-Me,4-F)][Aib]SW[Aib][Ala(pyrimidin-5-yl)]Q[Dab]G[dPro(4R-Bzl(4-F))]
modifications: lactam (positions not given here); also: macrolactam ring, closure sites not given here
With B19, the “MRC5 IC50” value is 0.038 nM.

B20: SEQ ID NO: 192 (peptide)
peptide: [Bip(4'-COOH)][Ala(1-bicyclo(1.1.1)pentyl)][Phe(4-COOH)]G[cisHyp][Trp(βS-Me,4-F)][Aib]SW[d(αMeS)][Ala(4-THP)]Q[Dab]G[dPro(4R-(4-pyridylmethyl))]
modifications: lactam (positions not given here); also: macrolactam ring, closure sites not given here
B20: the “MRC5 IC50” value is 0.021 nM.

B21: SEQ ID NO: 186 (peptide)
peptide: [Phe(4-(5-CO2H-2-pyrimidyl))][4Pal][Phe(4-COOH)]G[Pro(cis-4-F)][Trp(βS-Me,4-F)][Aib]SW[Aib][Ala(pyrimidin-5-yl)]Q[Dab]G[dPro(4R-(4-pyridylmethyl))]
modifications: lactam (positions not given here); also: macrolactam ring, closure sites not given here
For B21, the “MRC5 IC50” value worked out at 0.015 nM.
